Assay [1] deals with P. aeruginosa PAO1. Description: murine keratitis model, invasive strain (C57BL/6 mice). The format is in vivo. The protocol:
The inbred mice of C57BL/6 strain of both sexes in equivalent numbers were used for the research. 2-6 months old, adult female and adult male mice were purchased from the Vilnius University vivarium of laboratory animals. The animals throughout the period of the experiment were given standard chow and drinking water ad libitum. Animals were housed in the individual plastic cages in a 12 h light/dark cycle at 21-23° C. All regulated procedures on living animals were approved by The Lithuanian Ethics Committee of Biomedical Research (Protocol no. B1-442) and were carried out in accordance with the European Union legislation of OECD (directive 2010/63/EU). The experiments were carried out in Biological research center of Lithuanian University of Health Sciences.
For P. aeruginosa infection and keratitis induction the mice were anesthetized by Ketamine and Xylazine 90:9 mg/kg intraperitoneal injection. The cornea of the left eye of each mouse was visualized under a stereoscopic microscope, and three 1 mm scratches were made using a sterile 25 gauge needle. A 10 μL aliquot containing 4×10^6 cells of P. aeruginosa ATCC 19660 (cytotoxic strain) or PAO1 ATCC 15692 (invasive strain) was applied to the corneal surface. Depending on the experiment, the treatment was started 30 min or 6 h post infection. 10 μl aliquot containing 0.14 mg of tobramycin or 20 μg of S5-PmnH (both containing 0.5% hydroxypropyl methylcellulose (HPMC)) or PBS containing 0.5% HPMC was applied as one drop of substance to the each eye. HPMC is used as artificial tears and was used in order to thicken the tears film and prolong the presence of the applied product on the surface of the cornea. The treatment was continued for five days twice daily. Mice were euthanized by cervical dislocation 1, 3, 5 days post infection, and the eyeballs were collected and homogenized for viable bacteria count.
The eyes were examined and photographed with a dissection microscope equipped with a digital camera at 1, 3 and 5 dpi to monitor the disease progression. At 1, 3 and 5 dpi disease severity was visually graded by using an established corneal damage scale: 0, the pupil was partially or fully covered by clear or slight opacity; +1, the anterior segment was partially or fully covered by slight opacity; +2, the pupil was partially or fully covered by dense opacity; +3, the entire anterior segment was covered by dense opacity; and +4, corneal perforation^40.
Histopathology experiments were carried out at Lithuanian University of Health Sciences, Department of Veterinary Pathobiology of Veterinary Academy. One randomly chosen mice of each study group was used for histopathology experiments. Enucleated eyes were preserved in 10% formaldehyde. Eyes were paraffin-embedded, cut into 3-μm-thick sections, deparaffinised, rehydrated and used for preparation of hematoxylin/eosin stained samples.

Assay [2] has as its system P. aeruginosa strains. Description: agar disc-diffusion assay, panel of 25 strains. The format is cell-based. In short, it runs like this: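 Read-out: bacteriocin inhibition zones after overnight incubation at 37° C. Lawns came from CAA cultures set to OD595=1.0 and diluted 100×, swabbed on 1.5% CAA agar; discs of 6 mm received 0.3-30 μg chimeric pyocin.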
In general terms: In agar diffusion tests the substance spreads into inoculated agar from a disc or well.

Values joined by “and” are separate entries in the source; they are usually repeats but may differ in a detail not shown here. Equal values may be shown once.

B1: S5-PmnH (protein)
chain: MSNDNEVPGSMVIVAQGPDDQYAYEVPPIDSAAVAGNMFGDLIQREIYLQKNIYYPVRSIFEQGTKEKKEINKKVSDQVDGLLKQITQGKREATRQERVDVMSAVLHKMESDLEGYKKTFTKGPFIDYEKQSSLSIYEAWVKIWEKNSWEERKKYPFQQLVRDELERAVAYYKQDSLSEAVKVLRQELNKQKALKEKEDLSQLERDYRTRKANLEMKVQSELDQAGSALPPLVSPTPEQWLERATRLVTQAIADKKQLQTTNNTLIKNSPTPLEKQKAIYNGELLVDEIASLQARLVKLNAETTRRRTEKELTPDEKAAYTDAVSFVSTANEQMLQKYGANLSKVAQDMQAEIAGKKVRSYAEAMATFEKISANPAMKLNALDTQAVVDALNALDKASFADNITRLGKAFGVVGKVVQAEAIREKTVSGFQTGDWKPLMLELEAMAVGTGAGILLATSMAFFFPVFASAAAGVVVVALMMAATAAYFDAAKVDEINNLILN
modifications: Chimeric S5-PmnH
For the molecule B1, the “histological examination of infected treated eyes” value in assay [1] (1 dpi) was “signs of acute inflammation of cornea”; in assay [1] (3 dpi), “signs of acute inflammation of cornea”; in assay [1] (day 5), “no aberrations”. The “average reduction of bacterial burden vs mock-treated” value in assay [1] (treatment started 6 h post infection, 1 dpi) was determined as 1.04 log 10 CFU/cornea. The “viable bacteria in cornea, individual mouse” value in assay [1] (treatment started 6 h post infection, 3 dpi, third mouse) was 2.38 log 10 CFU. The “mice from which no viable bacteria were isolated” value in assay [1] (treatment started 6 h post infection, 3 dpi, three mice per group) is recorded as “two”. In addition, the “viable bacteria in cornea, individual mice” value in assay [1] (treatment started 6 h post infection, 5 dpi, mice with bacteria) is 5.14 log 10 CFU/cornea and 3.34 log 10 CFU/cornea. Further, in assay [1] (treatment started 6 h post infection, 5 dpi, three mice per group), the “mice from which no bacteria were isolated” value is “one”. In assay [2] (clinical isolates HP6 and HP7, S5 gave turbid zones with 3 μg and 30 μg), the “inhibition on lawns of S5 producer strains HP6 and HP7” value was “significantly larger and clearer than those formed by S5”. Moreover, the “activity spectrum / profile in agar disc diffusion assay” value in assay [2] (panel of 25 P. aeruginosa strains, in words) was “broadened activity spectrum in comparison to pyocin S5”. Moreover, the “inhibition zones on lawns of S5-producing strains” value in assay [2] (six pyocin S5 and immunity gene-positive strains (PA14, PAO1, HP6, HP7, ATCC 19660, NCTC 13921)) is “formed inhibition zones on the lawns of all six S5-producing strains”.

The values are drawn from patent publication US20250188133A1, “CHIMERIC BACTERIOCINS AND METHOD FOR THE CONTROL OF PSEUDOMONAS” (priority 2022, published 2025).
